Test results as given in patent US20200255836, “NUCLEIC ACID APTAMER FOR INHIBITING ACTIVITY OF GENOME-EDITING ENZYME” (NATIONAL INSTITUTE OF ADVANCED INDUSTRIAL SCIENCE AND …, published 2020).

What was measured:
Cas9 (His-Cas9) [1] = target: T1, Cas9 (His-Cas9) (Streptococcus pyogenes, UniProt Q99ZW2 Q99ZW2:1-1368); assay: SPR; 5'-biotin s21 immobilized; Cas9 without guide; 20 mM Tris pH 8.0, 150 mM NaCl, 1 mM MgCl2; settings: tags: His tag, expressed in E. coli; hairpin (stem-loop)
Experimental: In order to calculate the dissociation constant (Kd) between Cas9 protein and each nucleic acid aptamer, surface plasmon resonance analysis was conducted. The detailed experimental approach was as follows.
5′-Biotinylated s21 was prepared and was immobilized on a streptavidin sensor chip (GE Healthcare Japan Corp.). Then, different concentrations (2.5 nM, 5 nM, 10 nM, and 20 nM) of Cas9 protein were loaded in a running buffer (20 mM Tris/HCl pH 8.0, 150 mM NaCl, 1 mM MgCl₂, and 0.005% Tween-20) to obtain sensorgrams. Kd was calculated with Biacore evaluation software package (GE Healthcare Japan Corp., Ver 2.0). Tetra was used as a control to conduct a similar test.

Cas9 (His-Cas9) [2] = target: T1, Cas9 (His-Cas9); assay: EMSA; Cas9 without guide; 250 mM NaCl, 1 mM MgCl2, tRNA; settings: tags: His tag, expressed in E. coli; hairpin, 7-base loop
Experimental: (§1) The interaction between Cas9 protein and each nucleic acid aptamer having inhibitory activity was analyzed by gel shift assay. The detailed experimental conditions are as follows.
(§2) Amounts of 2 pmol of Cas9 protein and 20 pmol of each nucleic acid aptamer (s21, s21-2, s21-mm2, tetra, and St2-1SA (aptamer against streptavidin)) were incubated at normal temperature for 30 minutes in a binding buffer (20 mM Tris/HCl pH 8.0, 250 mM NaCl, 1 mM MgCl₂, 2.5% glycerol, 0.05% Tween-20, and 0.05 mg/ml tRNA). Then, the obtained product was electrophoresed on 8% acrylamide gel, and the gel was stained with SYBR Gold (Thermo Fisher Scientific Inc.), followed by analysis with Bio-Rad ChemiDoc XRS image analysis system (Bio-Rad Laboratories, Inc.). The sequence of St2-1SA is as described below (Table 13).

Cas9 (His-Cas9) [3] = target: T1, Cas9 (His-Cas9); assay: EMSA; no complex band; 250 mM NaCl, 1 mM MgCl2, tRNA; settings: tags: His tag, expressed in E. coli; hairpin
Experimental: as §1, §2

Cas9 (His-Cas9) [4] = target: T1, Cas9 (His-Cas9); assay: EMSA; negative control; no complex band; settings: tags: His tag, expressed in E. coli
Experimental: as §1, §2

T1 sequence (Q99ZW2 whole entry, one chain of several): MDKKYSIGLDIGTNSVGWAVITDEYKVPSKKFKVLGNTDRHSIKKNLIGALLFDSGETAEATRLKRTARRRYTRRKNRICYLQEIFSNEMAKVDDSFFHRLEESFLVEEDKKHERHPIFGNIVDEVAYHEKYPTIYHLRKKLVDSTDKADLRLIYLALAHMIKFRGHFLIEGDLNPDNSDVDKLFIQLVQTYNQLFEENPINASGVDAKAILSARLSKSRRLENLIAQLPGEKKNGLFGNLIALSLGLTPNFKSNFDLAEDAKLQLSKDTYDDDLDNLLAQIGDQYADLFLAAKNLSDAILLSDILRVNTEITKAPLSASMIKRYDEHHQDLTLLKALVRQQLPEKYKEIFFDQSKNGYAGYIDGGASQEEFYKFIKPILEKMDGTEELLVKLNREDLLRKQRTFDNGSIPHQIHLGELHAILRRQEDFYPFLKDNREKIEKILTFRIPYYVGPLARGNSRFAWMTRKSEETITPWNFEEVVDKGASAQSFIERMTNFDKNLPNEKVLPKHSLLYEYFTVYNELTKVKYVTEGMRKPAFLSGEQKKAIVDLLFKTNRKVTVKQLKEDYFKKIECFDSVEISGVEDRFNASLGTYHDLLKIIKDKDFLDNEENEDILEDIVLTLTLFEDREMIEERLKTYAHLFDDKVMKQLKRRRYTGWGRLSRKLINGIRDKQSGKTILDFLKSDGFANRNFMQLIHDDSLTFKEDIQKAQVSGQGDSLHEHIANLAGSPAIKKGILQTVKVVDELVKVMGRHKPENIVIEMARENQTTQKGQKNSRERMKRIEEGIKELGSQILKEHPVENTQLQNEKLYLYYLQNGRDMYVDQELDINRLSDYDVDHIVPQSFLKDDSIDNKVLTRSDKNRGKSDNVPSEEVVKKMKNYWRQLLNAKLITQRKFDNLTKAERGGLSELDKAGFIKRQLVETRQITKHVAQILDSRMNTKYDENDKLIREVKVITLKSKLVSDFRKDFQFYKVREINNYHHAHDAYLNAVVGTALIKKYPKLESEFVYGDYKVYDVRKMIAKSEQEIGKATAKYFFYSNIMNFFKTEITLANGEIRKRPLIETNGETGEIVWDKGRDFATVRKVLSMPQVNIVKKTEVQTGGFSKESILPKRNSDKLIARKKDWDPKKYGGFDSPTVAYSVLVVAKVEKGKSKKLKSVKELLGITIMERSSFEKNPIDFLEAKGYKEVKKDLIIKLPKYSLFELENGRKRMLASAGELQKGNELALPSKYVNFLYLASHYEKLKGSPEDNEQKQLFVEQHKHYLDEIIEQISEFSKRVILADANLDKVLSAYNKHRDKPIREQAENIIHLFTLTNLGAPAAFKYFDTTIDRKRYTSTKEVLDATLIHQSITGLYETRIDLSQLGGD

GAGGCTCTCACATCGCGCCTTTCCCCAGCTTTCGGTGTGAGAGCCTC (ssDNA) [s21]
Kd (Cas9 (His-Cas9) [1]): 0.57 nM

GAGGCTCTCACATCGCGCCTTTCGGTGTGAGAGCCTC (ssDNA) [s21-2]
binding result (Cas9 (His-Cas9) [2]): binds

GAGGCTCTCACAGCGCGCCTTTCGTTGTGAGAGCCTC (ssDNA) [s21-2mm2]
binding result (Cas9 (His-Cas9) [3]): no binding

ATTGACCGCTGTGTGACGCAACACTCAAT (ssDNA) [St2-1SA (streptavidin aptamer)]
binding result (Cas9 (His-Cas9) [4]): no binding
